Assay results taken from PMC3164844 (Proteins, 2011).

Key:
GDPMK = GDPMK (Escherichia coli, UniProt P37128, E100A); experiment: X-ray crystal structure, […] Å; assay type: binding; settings: Mg2+; active site; co-crystallised at pH 8.5
SEC = target: the molecule itself; experiment: SEC
phosphate release = substrate: Nc1nc2c(ncn2[C@@H]2O[C@H](COP(=O)(O)OP(=O)(O)O[C@H]3O[C@H](CO)[C@@H](O)[C@H](O)[C@@H]3O)[C@@H](O)[C@H]2O)c(=O)[nH]1; experiment: phosphate release; assay type: biochemical, Escherichia coli; settings: Mg2+, pH 8.5, 37 °C
crystal structure = target: the molecule itself; experiment: crystal structure

## Nc1nc2c(ncn2[C@@H]2O[C@H](COP(=O)(O)OP(=O)(O)O[C@H]3O[C@H](CO)[C@@H](O)[C@H](O)[C@@H]3O)[C@@H](O)[C@H]2O)c(=O)[nH]1 [GDP-mannose]
GDPMK
  X-ray crystal structure, 2.45 Å: The structure of the complex of the GDPMK E100A mutant with GDP-mannose and magnesium

B1: GDPMK, Nudix GDP-mannose hydrolase from E. coli (product of the gene yffH), wild type (enzyme, UniProt P37128 1-191, looked up)
chain: MTQQITLIKDKILSDNYFTLHNITYDLTRKDGEVIRHKREVYDRGNGATILLYNTKKKTVVLIRQFRVATWVNGNESGQLIESCAGLLDNDEPEVCIRKEAIEETGYEVGEVRKLFELYMSPGGVTELIHFFIAEYSDNQRANAGGGVEDEDIEVLELPFSQALEMIKTGEIRDGKTVLLLNYLQTSHLMD
SEC
  stoichiometry N: 2
Phosphate release
  Km: 659 ± 65 µM
  kcat: 90.2 ± 6.7 s⁻¹

B2: GDPMK (Escherichia coli K-12; E151A) (protein)
chain: MTQQITLIKDKILSDNYFTLHNITYDLTRKDGEVIRHKREVYDRGNGATILLYNTKKKTVVLIRQFRVATWVNGNESGQLIESCAGLLDNDEPEVCIRKEAIEETGYEVGEVRKLFELYMSPGGVTELIHFFIAEYSDNQRANAGGGVEDADIEVLELPFSQALEMIKTGEIRDGKTVLLLNYLQTSHLMD
Phosphate release
  Km: 594 ± 140 µM
  kcat: 21.3 ± 4.6 s⁻¹

B3: GDPMK (Escherichia coli K-12; E149A) (protein)
chain: MTQQITLIKDKILSDNYFTLHNITYDLTRKDGEVIRHKREVYDRGNGATILLYNTKKKTVVLIRQFRVATWVNGNESGQLIESCAGLLDNDEPEVCIRKEAIEETGYEVGEVRKLFELYMSPGGVTELIHFFIAEYSDNQRANAGGGVADEDIEVLELPFSQALEMIKTGEIRDGKTVLLLNYLQTSHLMD
Phosphate release
  Km: 555 ± 85 µM
  kcat: 80.6 ± 6.3 s⁻¹

B4: GDPMK (Escherichia coli K-12; K176A) (protein)
chain: MTQQITLIKDKILSDNYFTLHNITYDLTRKDGEVIRHKREVYDRGNGATILLYNTKKKTVVLIRQFRVATWVNGNESGQLIESCAGLLDNDEPEVCIRKEAIEETGYEVGEVRKLFELYMSPGGVTELIHFFIAEYSDNQRANAGGGVEDEDIEVLELPFSQALEMIKTGEIRDGATVLLLNYLQTSHLMD
Phosphate release
  kcat: 0.11 ± 0.04 s⁻¹

B5: GDPMK (Escherichia coli K-12; R44S) (protein)
chain: MTQQITLIKDKILSDNYFTLHNITYDLTRKDGEVIRHKREVYDSGNGATILLYNTKKKTVVLIRQFRVATWVNGNESGQLIESCAGLLDNDEPEVCIRKEAIEETGYEVGEVRKLFELYMSPGGVTELIHFFIAEYSDNQRANAGGGVEDEDIEVLELPFSQALEMIKTGEIRDGKTVLLLNYLQTSHLMD
Phosphate release
  kcat: 1.69 ± 0.12 s⁻¹

B6: GDPMK E100A mutant (enzyme, E. coli, UniProt P37128 1-191, looked up)
chain: MTQQITLIKDKILSDNYFTLHNITYDLTRKDGEVIRHKREVYDRGNGATILLYNTKKKTVVLIRQFRVATWVNGNESGQLIESCAGLLDNDEPEVCIRKAAIEETGYEVGEVRKLFELYMSPGGVTELIHFFIAEYSDNQRANAGGGVEDEDIEVLELPFSQALEMIKTGEIRDGKTVLLLNYLQTSHLMD
Crystal structure
  binding result: binds
